Our source for the localisation_or_trafficking and expression_or_secretion values is PMC10719177.

The nature of data set [1]: confocal colocalisation with LAMP-1/CD63 (Pearson), cell lines. As to conditions: control: untreated cells.
Data set [2] can be described thus: confocal colocalisation (Pearson), primary and super-charged NK cells. As to conditions: glycan changed form; control: untreated cells.
Data set [3] in a line: western blot of cell media. As to conditions: glycan lost; control: untreated cells.

B1: cystatin F: kifunensine (10 µM, 6 h); U-937, TALL-104, NK-92 (protein)
parent chain: MRAAGTLLAFCCLVLSTTGGPSPDTCSQDLNSRVKPGFPKTIKTNDPGVLQAARYSVEKFNNCTNDMFLFKESRITRALVQIVKGLKYMLEVEIGRTTCKKNQHLRLDDCDFQTNHTLKQTLSCYSEVWVVPWLQHFEVPVLRCH
With B1, the localisation_or_trafficking entry in data set [1] (glycan changed form) is “increases”.

B2: cystatin F: kifunensine (10 µM, 6 h); pNK, sNK (protein)
parent chain: B1 parent chain
Consider B2, for which, in data set [2], the localisation_or_trafficking result is reported as “increases”.

B3: cystatin F: tunicamycin (1 µg/mL); U-937, NK-92 (protein)
parent chain: B1 parent chain
On to B3, for which the localisation_or_trafficking result in data set [1] (glycan lost) is “decreases”.

B4: cystatin F: tunicamycin (protein)
parent chain: B1 parent chain
In the case of B4, the expression_or_secretion entry in data set [3] is recorded as “changes”.
